# Test results: article doi:10.1101/2025.09.11.675134, “Biodistribution-Driven Discovery Identifies a Glycosidase-Cleavable Linker to Reprogram Radiotheranostics” (bioRxiv, 2025)
# Entries after “also recorded” stand apart in the source; their conditions may differ. Like-named read-outs stand apart in the source and are kept apart here.
# Key:
# [1] = system: AR42J xenografts; experiment: PET/CT quantification of 86Y-labeled variants in AR42J xenograft mice; assay type: in vivo; details: PET SUVmax, 24 h post-injection
# Procedure: For studies involving three variants (DOTA -TATE, DOTA-MVK(ε)-TATE, and DOTA-β-Gal-TATE), AR42J cells (5 × 10^6 cells per mouse) were subcutaneously inoculated into the right shoulder of the mice. Tumors were allowed to grow for 3 weeks, reaching a volume of 100 –200 mm³ before being used in subsequent experiments. For biodistribution or PET imaging studies, mice bearing subcutaneous AR42J tumors were administered 1.4 – 1.8 MBq (1 μg) of 111In-labeled DOTA-TATE variants or 2.7 – 4.9 MBq (1 μg) of 86Y-labeled DOTA-TATE variants via […]
# tail vein injection. […]
# PET imaging to assess the uptake of three 86Y-labeled DOTA-TATE variants (2.7 – 4.9 MBq, 1 μg) in the kidney and tumor was performed at 1, 4, and 24 hours post-injection (n = 3 per cohort) in mice bearing AR42J tumors using the MRS*PET/CT 120 scanner (MR Solutions, Guildford, UK). PET/CT data acquisition was managed using Preclinical Scan software (version 4.2.4.0, MR Solutions). Mice were anesthetized with 2% isoflurane, and static PET sc ans were acquired over 10 min. CT scans were obtained for attenuation correction and anatomical co-registration.
# PET data were reconstructed using three-dimensional ordered-subsets expectation maximization, and were subsequently normalized, decay - and dead-time–corrected prior to analysis. PET/CT images were analyzed using MIM software (version 7.2.7, MIM Software Inc., Beachwood, OH, USA), and the quantitative evaluation of the maximum standardized uptake (SUVmax) and the average standardized uptake values (SUVmean) in the kidney and tumor were also performed. […]
# [2] = system: β-galactosidase; details: β-galactosidase 10 KU/mL in PBS (10 mM, pH 7.2), 37 °C; for Cleaved product 86Y-DOTA-NHMe, % of the total activity: mixed 1:1 (v/v), radio-TLC
# Procedure: To further confirm β-galactosidase-specific cleavage, ^86Y-DOTA-β-Gal-TATE was incubated in vitro with β-galactosidase and analyzed by radio-TLC over time.
# To analyze radioactive urine metabolites, ^86Y-DOTA-MVK(ε)-TATE or ^86Y-DOTA-β-Gal-TATE (13 – 15 MBq in 200 μL PBS, 4 μg) was intravenously injected into normal, non-tumor-bearing athymic nu/nu mice (n = 3). As reference controls, standard metabolites of ^86Y-DOTA-MVK(ε)-TATE (^86Y-DOTA-G-M-OH) and ^86Y-DOTA-β-Gal-TATE (^86Y-DOTA-NHMe) were also prepared and administered to normal athymic, non-tumor-bearing nu/nu mice. Urine samples were collected 1 hour post-injection, centrifuged at 10,000 rpm, and subsequently analyzed by radio-HPLC for each ^86Y-labeled DOTA-TATE variant. The radio-HPLC peaks were compared with those of the standard metabolites (^86Y-DOTA-G-M-OH or ^86Y-DOTA-NHMe). Radio-HPLC analysis was conducted under the same conditions as those used for analyzing the radiolabeled the DOTA-TATE variants, using an Agilent 1260 Infinity II system with a TSK-gel Octadecyl-4PW column and a gradient elution method. For in vitro enzyme-mediated cleavage, β-galactosidase was prepared in PBS (10 mM, pH 7.2) at 10 KU/mL. ^86Y-DOTA-β-Gal-TATE (13–15 MBq in 200 μL PBS) was mixed 1:1 (v/v) with β-galactosidase solution and incubated at 37 °C. Aliquots were taken at 1, 4, and 24 h, centrifuged at 10,000 rpm, and the supernatants were analyzed by radio-TLC. The 24 h sample was further examined by radio-HPLC to confirm metabolite identity.
# [3] = system: AR42J xenografts; experiment: Ex vivo biodistribution of 111In-labeled variants in AR42J xenograft mice; parameters: species or system athymic nude mice; details: AR42J xenografts, 1 h post-injection
# Procedure: For studies involving three variants (DOTA -TATE, DOTA-MVK(ε)-TATE, and DOTA-β-Gal-TATE), AR42J cells (5 × 10^6 cells per mouse) were subcutaneously inoculated into the right shoulder of the mice. Tumors were allowed to grow for 3 weeks, reaching a volume of 100 –200 mm³ before being used in subsequent experiments. For biodistribution or PET imaging studies, mice bearing subcutaneous AR42J tumors were administered 1.4 – 1.8 MBq (1 μg) of 111In-labeled DOTA-TATE variants or 2.7 – 4.9 MBq (1 μg) of 86Y-labeled DOTA-TATE variants via tail vein injection. Biodistribution studies with 111In-labeled DOTA -TATE variants were performed 1 hour post -injection (n = 3 per cohort), while studies with 86Y-labeled DOTA-TATE variants were conducted at 1, 4, and 24 hours post -injection (n = 3 per cohort). Mice were euthanized by CO2 asphyxiation, and 10 tissues, including tumors, were collected. All samples were weighed and counted on a gamma counter (2480 Wizard 3, Perkin Elmer Inc., Waltham, MA, USA). Results are presented as percentage of injected activity per gram (%IA/g) and mean values ± standard deviations. […]
# [4] = system: AR42J xenografts; experiment: Targeted alpha particle therapy, two-cycle regimen; assay type: in vivo, athymic nu/nu mice; details: 2 × 148 kBq
# Procedure: To further assess therapeutic efficacy, AR42J xenograft-bearing mice received two cycles of ^225Ac-labeled constructs (2 × 148 kBq, administered 8 days apart) (Fig. 5D). […] Complete tumor regression occurred in two of six animals in each cleavable linker group.
# (§1) Mice received either a one-cycle regimen (n=8 per cohort) or a two-cycle regimen (n=6 per cohort) at an 8-day interval. Tumor volume and body weight were measured twice weekly after treatment using a digital caliper. Tumor volume was calculated using the formula V (mm^3) = (l × w^2)/2, where l (length) was the larger of the two perpendicular tumor axes, and w (width) was the smaller axis. Survival was monitored, with the endpoint defined as a tumor volume exceeding 2000 mm^3, a weight loss greater than 20% from baseline, or signs of distress in the mice.
# [5] = system: AR42J xenografts; experiment: Targeted alpha particle therapy, one-cycle regimen; assay type: in vivo, athymic nu/nu mice
# Procedure: Building on the favorable dosimetry profiles observed for the cleavable linker-modified constructs, we next evaluated their therapeutic efficacy in vivo following one cycle of ^225Ac-labeled variants (Fig. 5C; Fig. S19A). […] Tumor growth, overall survival, and body weight were monitored over 95 days.
# as §1
smiles,measurement,setting,value
"C[C@@H](O)[C@H](NC(=O)[C@@H]1CSSC[C@H](NC(=O)[C@@H](Cc2ccccc2)NC(=O)CCCC(=O)Nc2cc(COC(=O)N(C)CCNC(=O)CN3CCN(CC(=O)O)CCN(CC(=O)O)CCN(CC(=O)O)CC3)ccc2O[C@@H]2O[C@H](CO)[C@H](O)[C@H](O)[C@H]2O)C(=O)N[C@@H](Cc2ccc(O)cc2)C(=O)N[C@H](Cc2c[nH]c3ccccc23)C(=O)N[C@@H](CCCCN)C(=O)N[C@@H]([C@@H](C)O)C(=O)N1)C(=O)O [^86Y-DOTA-β-Gal-TATE, metal not drawn]",T/K ratio higher than that of 86Y-DOTA-MVK(ε)-TATE,[1],approximately 2.7 fold
same,T/K ratio higher than that of 86Y-DOTA-TATE,[1],over 10 fold
same,Compound converted to 86Y-DOTA-NHMe,"[2]; 24 h sample, radio-HPLC (peak at 2.6 min)",90.7%
same,"Cleaved product 86Y-DOTA-NHMe, % of the total activity",[2]; 1 h,24.6%
same,"Cleaved product 86Y-DOTA-NHMe, % of the total activity",[2]; 4 h,50.2%
same,"Cleaved product 86Y-DOTA-NHMe, % of the total activity",[2]; 24 h,88.8%
"C[C@@H](O)[C@H](NC(=O)[C@@H]1CSSC[C@H](NC(=O)[C@@H](Cc2ccccc2)NC(=O)CCCC(=O)Nc2cc(COC(=O)N(C)CCNC(=O)CN3CCN(CC(=O)O)CCN(CC(=O)O)CCN(CC(=O)O)CC3)ccc2O[C@@H]2O[C@H](CO)[C@H](O)[C@H](O)[C@H]2O)C(=O)N[C@@H](Cc2ccc(O)cc2)C(=O)N[C@H](Cc2c[nH]c3ccccc23)C(=O)N[C@@H](CCCCN)C(=O)N[C@@H]([C@@H](C)O)C(=O)N1)C(=O)O [^111In-DOTA-β-Gal-TATE, metal not drawn]",Improvement of T/K ratio over DOTA-TATE,[3],2.7 fold
same,Increase in tumor uptake compared to DOTA-TATE,[3],~ 90%
same,Reduction in kidney retention compared to DOTA-TATE,[3],~ 29%
"C[C@@H](O)[C@H](NC(=O)[C@@H]1CSSC[C@H](NC(=O)[C@@H](Cc2ccccc2)NC(=O)CCCC(=O)Nc2cc(COC(=O)N(C)CCNC(=O)CN3CCN(CC(=O)O)CCN(CC(=O)O)CCN(CC(=O)O)CC3)ccc2O[C@@H]2O[C@H](CO)[C@H](O)[C@H](O)[C@H]2O)C(=O)N[C@@H](Cc2ccc(O)cc2)C(=O)N[C@H](Cc2c[nH]c3ccccc23)C(=O)N[C@@H](CCCCN)C(=O)N[C@@H]([C@@H](C)O)C(=O)N1)C(=O)O [^225Ac-DOTA-β-Gal-TATE, metal not drawn]",Tumor control,"[4]; 8-day interval, n = 6",significantly smaller; also recorded: prolonged tumor control with sustained growth inhibition
same,Median survival time,"[4]; 8 days apart, AR42J xenograft-bearing mice, n = 6, Kaplan–Meier, vehicle 26.5 days",191.5 days
same,Mice with tumor volumes below 100 mm^3 by the final monitoring point,[4]; n = 6,all six
same,Median survival time,"[5]; 148 kBq (1 μg) per mouse, AR42J xenograft-bearing mice, n = 8, Kaplan–Meier, vehicle 16 days",86 days
same,Tumor growth,"[5]; 148 kBq per mouse, monitored over 95 days, n = 8","most sustained inhibition of tumor growth, with minimal progression observed up to day 35 post-treatment"
same,Body weight,"[5]; 148 kBq per mouse, n = 8","gradually regained weight by day 14, maintaining stable body weights for the remainder of the study"
